The values that follow come from PMC2441792.

For assay [1], the target named is protein δ (ParA-Ib type Walker-box ATPase) of plasmid pSM19035, wild type (Streptococcus pyogenes (plasmid pSM19035)). Kind of assay: SEC + cross-linking.
The target of assay [2] is δ2K36A (Walker A mutant of protein δ) (Streptococcus pyogenes (plasmid pSM19035)). As to the kind of experiment: SEC + cross-linking.

Consider “protein δ (ParA-Ib type Walker-box ATPase) of plasmid pSM19035, wild type (enzyme)”, for which the stoichiometry N in assay [1] amounted to 2.

“δ2K36A (Walker A mutant of protein δ) (enzyme)”: the stoichiometry N in assay [2] came to 2.

In general, stoichiometry N refers to the number of molecules, sites or subunits per partner or assembly.
